This note sets out measurements from patent publication US20210054097A1 (Novo Nordisk, published 2021).

One assay has as its target human activated Factor X (human, UniProt P00742 41-179; P00742 235-488). Put plainly: cell-based or functional assay.
Assay [1] addresses T1, FX activation peptide 12-mer VAQATSSSGEAP (human).
T1 peptide: VAQATSSSGEAP-biotin
Put plainly: peptide ELISA. How it is done:
(§1) The peptides were C-terminally conjugated to biotin and 50 μL of 1 μg/mL peptide solution was used for immobilization in discrete wells of the microtiter plate which was pre-coated with 1 μg/mL streptavidin. Each well was washed with washing buffer (10 mM Tris, 150 mM NaCl, 2.5 mM CaCl₂, 0.05% Tween 20, pH 8.60) followed by addition of 50 μL of 2 μg/mL FLAG-tagged anti-FX Nanobody® or IgG antibody to be tested. After 1 hour non-bound Nanobody®/antibody was washed off using washing buffer.
(§2) Bound anti-FX activation peptide ligand was detected by first binding a HRP-labelled secondary antibody (for FLAG-tagged Nanobodies: Anti-FLAG mAb M2-Peroxidase (HRP) (Sigma Aldrich, US), for antibody: Fcγ Fragment Specific Peroxidase AffiniPure F(ab′)₂ Fragment Goat Anti-Human IgG (Jackson ImmunoResearch Laboratories, Inc., US), or Peroxidase AffiniPure Goat Anti-Mouse IgG (Jackson ImmunoResearch Laboratories, Inc., US)) for 1 hour, and then adding 100 μL TMB-1 ELISA substrate (Kem-En-Tec Diagnostics, Denmark).
For orientation: ELISA stands for enzyme-linked immunosorbent assay.

The target of assay [2] is T2, FX activation peptide 12-mer SVAQATSSSGEA (human).
T2 peptide: SVAQATSSSGEA-biotin
Put plainly: peptide ELISA. As to the method: as §1, §2

Assay [3] deals with T3, FX activation peptide 12-mer GEAPDSITWKPY (human).
T3 peptide: GEAPDSITWKPY-biotin
Put plainly: peptide ELISA. How it is done:
as §1, §2

Assay [4] addresses T4, FX activation peptide 12-mer PYDAADLDPTEN (human).
T4 peptide: PYDAADLDPTEN-biotin
Put plainly: peptide ELISA. As to the method:
as §1, §2

Assay [5] addresses T5, FX activation peptide 12-mer NQTQPERGDNNL (human).
T5 peptide: NQTQPERGDNNL-biotin
Kind of assay: peptide ELISA. As to the method: as §1, §2

The target of assay [6] is T6, FX activation peptide 12-mer QTQPERGDNNLT (human).
T6 peptide: QTQPERGDNNLT-biotin
Put plainly: peptide ELISA. As to the method:
as §1, §2

The target of assay [7] is T7, FX activation peptide 12-mer APDSITWKPYDA (human).
T7 peptide: APDSITWKPYDA-biotin
Put plainly: peptide ELISA. How it is done:
as §1, §2

In assay [8] the target is T8, FX activation peptide 12-mer NPFDLLDFNQTQ (human).
T8 peptide: NPFDLLDFNQTQ-biotin
Kind of assay: peptide ELISA. How it is done:
as §1, §2

Assay [9] deals with T9, FX activation peptide 12-mer AQATSSSGEAPD (human).
T9 peptide: AQATSSSGEAPD-biotin
Put plainly: peptide ELISA. As to the method: as §1, §2

Assay [10] concerns the target T10, FX activation peptide 12-mer ADLDPTENPFDL (human).
T10 peptide: ADLDPTENPFDL-biotin
Put plainly: peptide ELISA. How it is done:
as §1, §2

Assay [11] addresses T11, FX activation peptide 12-mer DLDPTENPFDLL (human).
T11 peptide: DLDPTENPFDLL-biotin
Put plainly: peptide ELISA. How it is done: as §1, §2

Assay [12] deals with T12, FX activation peptide 12-mer DFNQTQPERGDN (human).
T12 peptide: DFNQTQPERGDN-biotin
Kind of assay: peptide ELISA. How it is done: as §1, §2

The target of assay [13] is T13, FX activation peptide 12-mer EAPDSITWKPYD (human).
T13 peptide: EAPDSITWKPYD-biotin
Put plainly: peptide ELISA. As to the method: as §1, §2

Assay [14] addresses T14, FX activation peptide 12-mer TENPFDLLDFNQ (human).
T14 peptide: TENPFDLLDFNQ-biotin
Kind of assay: peptide ELISA. How it is done: as §1, §2

The target of assay [15] is T15, FX activation peptide 12-mer LLDFNQTQPERG (human).
T15 peptide: LLDFNQTQPERG-biotin
Kind of assay: peptide ELISA. As to the method: as §1, §2

Assay [16] concerns the target T16, human plasma-derived Factor X zymogen (human, UniProt P00742 41-179; P00742 183-488).
T16 construct: Plasma-derived, bought (Haematologic Technologies); also called FX; human FX
Put plainly: apparent KD fitted from FXa generation assay. As to the method:
The ability of the monovalent anti-FX Nanobody® (Nb) to promote FIXa-mediated FX-activation was determined in the presence of a procoagulant phospholipid membrane according to the principles described by Scheiflinger et al. (2008) J Thromb Haemost, 6:315-322. A Fab of mAb 13F62 (IgG1 isotype, variable sequences identified by SEQ ID NO:6 and 7), also found to bind the activation peptide, were included for comparison. Moreover, anti-FX antibodies as disclosed in U.S. Pat. No. 9,334,331 (J327 and L404-k in said publication), corresponding to the anti-FX arm of ACE910); and more recently in WO2018/021450 (J327 D31H and JYL280 in said publication) and WO2018/098363 (BIIB-12-917 represented by SEQ ID NO:427 and 615 in said publication) are stated to be suitable for use as part of anti-FIX/anti-FX bispecific FVIII mimetic compounds were, furthermore, included for comparison.
Each compound was tested individually in a concentration range from 0-1000 nM, 0-2000 nM, 0-4000 nM or 0-8000 nM by pre-incubation with 1-1.5 nM human plasma-derived FIXa (Haematologic Technologies Inc, USA) and 500 μM 25:75 phosphatidyl serine:phosphatidyl choline phospholipid vesicles (Haematologic Technologies Inc, USA) in assay buffer (50 mM HEPES, 100 mM NaCl, 5 mM CaCl₂, 0.1% (w/v) PEG8000, 1 mg/mL bovine serum albumin, pH 7.3) for 10 minutes. The reaction was initiated by addition of human plasma-derived FX (Haematologic Technologies Inc, USA) to a final concentration of 100 nM and a reaction volume of 50 μL. Following 20 minutes activation at room temperature while agitated (1000 RPM), the reaction was quenched by addition of 25 μL quench buffer (50 mM HEPES, 100 mM NaCl, 60 mM EDTA, 0.1% (w/v) PEG8000, 1 mg/mL bovine serum albumin, pH 7.3). The amount of FXa generated was determined by addition of 25 μL 2 mM S-2765 chromogenic substrate for FXa (Chromogenix, Sweden) and chromogenic substrate conversion was followed by measuring absorbance at 405 nm for 10 minutes in a microplate reader. The observed change in 405 nm absorbance (ΔAbs405/min) was fitted to the quadratic binding equation (eq. 1) to obtain the peak stimulatory activity and EC50.

Assay [17] has as its target T16, human plasma-derived Factor X zymogen. Put plainly: cell-based or functional assay.
The target in assay [18] is T17, FX activation peptide 12-mer FDLLDFNQTQPE (human).
T17 peptide: FDLLDFNQTQPE-biotin
Put plainly: peptide ELISA. As to the method:
as §1, §2

Ends that are not written are not given here.

T16 sequence (P00742 41-179, chain 1 of 2): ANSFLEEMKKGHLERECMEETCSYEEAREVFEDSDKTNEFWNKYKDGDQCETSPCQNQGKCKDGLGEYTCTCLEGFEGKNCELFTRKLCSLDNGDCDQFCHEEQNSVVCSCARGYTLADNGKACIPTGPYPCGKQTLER
T16 sequence (P00742 183-488, chain 2 of 2): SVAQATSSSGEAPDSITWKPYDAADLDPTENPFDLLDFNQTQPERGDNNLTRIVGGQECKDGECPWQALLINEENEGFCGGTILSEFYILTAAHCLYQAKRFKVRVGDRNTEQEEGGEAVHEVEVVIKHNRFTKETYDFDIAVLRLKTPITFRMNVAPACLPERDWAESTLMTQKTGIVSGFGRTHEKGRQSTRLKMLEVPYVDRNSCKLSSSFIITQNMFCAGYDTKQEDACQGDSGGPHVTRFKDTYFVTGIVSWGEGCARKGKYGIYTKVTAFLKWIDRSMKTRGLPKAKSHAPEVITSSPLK
Sequence of human activated Factor X (P00742 41-179, chain 1 of 2): as the sequence (P00742 41-179, chain 1 of 2) above
Sequence of human activated Factor X (P00742 235-488, chain 2 of 2): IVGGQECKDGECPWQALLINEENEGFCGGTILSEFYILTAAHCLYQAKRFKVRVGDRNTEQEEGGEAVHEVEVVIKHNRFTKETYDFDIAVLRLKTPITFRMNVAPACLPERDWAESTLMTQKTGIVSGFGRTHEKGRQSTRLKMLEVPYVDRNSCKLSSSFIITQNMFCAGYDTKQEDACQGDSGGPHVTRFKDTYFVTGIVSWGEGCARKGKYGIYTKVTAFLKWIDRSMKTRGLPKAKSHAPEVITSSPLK

B1: Nb 729A04 (VHH)
VHH: EVQLVESGGGVVQPGGSLRLSCAASGFTFSDYAMSWVRQAPGKGLEWVSGITSGGGRTYYADSVKGRFTISRDNSKNTLYLQMNSLRPEDTALYYCAAVRTLGLRGSYDYWGQGTLVTVSS
notes: monovalent Nanobody; not shown: C-terminal FLAG3 and HIS6 tag
On to B1, for which the “FXa amidolytic activity (relative to free FXa, fold)” value in the assay with human activated Factor X worked out at 1.11 fold. In addition, the “ELISA signal relative to background” value in [1] was determined as 0.99; in assay [2], 0.92; in [3], 1.05; in assay [4] it was 1.06; in [5] it was 1.13; in assay [6], 1.11. The “ELISA signal relative to background” value in [7] was determined as 1.04; in [8], 8.27; in [9], 1.08; in assay [10], 0.98; in assay [11], 1.06; in assay [12], 0.97. The “ELISA signal relative to background” value in assay [13] came out at 1.01; in assay [14], 9.12; in assay [15], 1.1. Further, in assay [16], the Kd was determined as 83.2 nM. The “Increase in FX activation (fold)” value in assay [17] is 4.1 fold.

B2: Nb 701C06 (VHH)
VHH: EVQLVESGGGVVQPGGSLRLSCAASGRTFSTYAMGWFRQAPGKEREFVAAISRRGGRTYYADSVKGRFTISRDNSKNTVYLQMNSLRPEDTALYYCAADATARDGLLDYWGQGTLVTVSS
notes: as for B1
In the case of B2, the “FXa amidolytic activity (relative to free FXa, fold)” value with human activated Factor X came to 1.06 fold. Besides, the “ELISA signal relative to background” value came to 0.93 in assay [1]; 0.92 in assay [2]; 0.9 in assay [3]; 0.82 in assay [4]; 0.85 in assay [5]; 0.93 in [6]. The “ELISA signal relative to background” value stood at 0.96 in [7]; 0.91 in assay [9]; 0.87 in assay [10]; 0.88 in assay [11]; 0.87 in assay [12]; 0.89 in assay [13]. The “ELISA signal relative to background” value in assay [15] stood at 1.03. In addition, the Kd in assay [16] worked out at 41.9 nM. Besides, the “Increase in FX activation (fold)” value in assay [17] turned out to be 26 fold.

B3: Nb 702C12 (VHH)
VHH: EVQLVESGGGVVQPGGSLRLSCVASGRTFSRYAMGWFRQAPGKEREFVAAISRRGGSTNYADSVKGRFTISRDNSKNTVYLQMNSLRPEDTALYYCAADYSSGDGYLDYWGQGTLVTVSS
notes: as for B1
Turning to B3, in the assay with human activated Factor X, the “FXa amidolytic activity (relative to free FXa, fold)” value was 1.05 fold. For the same molecule, the “ELISA signal relative to background” value in [1] came out at 1.02; in assay [2] it was 0.96; in assay [3], 0.93; in assay [4] it was 0.83; in assay [5] it was 0.92; in [6] it was 0.88. The “ELISA signal relative to background” value was 1.06 in assay [7]; 3.13 in [8]; 4.38 in assay [18]; 0.97 in [9]; 0.91 in assay [10]; 1 in assay [11]. Moreover, the “ELISA signal relative to background” value in assay [12] was 0.94; in assay [13], 0.97; in [14], 4.84. The Kd in [16] was 75.4 nM. Further, the “Increase in FX activation (fold)” value in [17] amounted to 18.9 fold.

B4: Nb 701D07 (VHH)
VHH: EVQLVESGGGVVQPGGSLRLSCAASGGTLSRYAMGWFRQAPGKEREFVAAITRRGSRTYYADSVKGRFTISRDNSKNTVYLQMNSLRPEDTALYYCAADLAPGDYALDYWGQGTLVTVSS
notes: as for B1
B4: the “FXa amidolytic activity (relative to free FXa, fold)” value in the assay with human activated Factor X stood at 1.05 fold. The “ELISA signal relative to background” value in assay [1] turned out to be 0.84; in [2], 0.76; in assay [3] it was 0.8; in assay [4], 0.73; in assay [5], 0.87; in assay [6] it was 0.79. Besides, the “ELISA signal relative to background” value in [7] was 0.9; in [18], 0.99; in assay [9], 0.89; in [10], 0.77; in assay [11] it was 0.74; in assay [12], 0.75. For the same molecule, the “ELISA signal relative to background” value in [13] turned out to be 0.76; in assay [15], 0.8. Also, the Kd in assay [16] was 66.1 nM. Besides, in [17], the “Increase in FX activation (fold)” value was 17.2 fold.
